Data from US20180141977A1 (NORWEGIAN UNIVERSITY OF SCIENCE AND TECHNOLOGY NTNU, published 2018).

Biological target: T1, β-clamp protein from E. coli (E. coli, UniProt P0A988 1-366, labeled with a fluorescent molecule (site not stated))
T1 construct: Fluorescently labelled for microscale thermophoresis; also called sliding clamp
Assay: microscale thermophoresis, fluorescently labelled β-clamp, peptide titrated (table cell the 66th table, row 38, column 4 prints 'Nd')

T1 sequence (P0A988 whole entry): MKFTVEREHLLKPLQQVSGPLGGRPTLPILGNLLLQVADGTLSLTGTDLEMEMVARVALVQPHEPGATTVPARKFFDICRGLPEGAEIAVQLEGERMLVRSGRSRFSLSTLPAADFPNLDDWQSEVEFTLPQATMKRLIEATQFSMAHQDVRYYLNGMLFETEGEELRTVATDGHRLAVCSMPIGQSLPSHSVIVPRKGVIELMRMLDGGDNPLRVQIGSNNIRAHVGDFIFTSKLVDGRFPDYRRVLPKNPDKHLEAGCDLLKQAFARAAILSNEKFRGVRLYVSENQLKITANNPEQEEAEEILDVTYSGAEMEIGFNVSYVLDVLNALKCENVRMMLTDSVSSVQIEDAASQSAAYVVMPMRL

B1: R11 peptide (SEQ ID NO: 337) (peptide)
peptide: RRRRRRRRRRR
notes: Control peptide without APIM motif; also called cell penetrating peptide
binding result: no binding
